Each block holds one binder with its values, some of them ahead of it.
How the values were obtained:
[1] = target: SNX27 PDZ domain in the presence of VPS26A (p.K93E) (rat | human, UniProt Q8K4V4;O75436, p.K93E); test: ITC
[2] = target: SNX27 PDZ domain in the presence of VPS26A (p.M112V) (rat | human, UniProt Q8K4V4;O75436, p.M112V); test: ITC
[3] = target: GFP-VPS26A (p.K297X) (human, UniProt O75436 1-296); test: affinity purification with mass spectrometry
Sequence of GFP-VPS26A (p.K297X) (O75436 1-296): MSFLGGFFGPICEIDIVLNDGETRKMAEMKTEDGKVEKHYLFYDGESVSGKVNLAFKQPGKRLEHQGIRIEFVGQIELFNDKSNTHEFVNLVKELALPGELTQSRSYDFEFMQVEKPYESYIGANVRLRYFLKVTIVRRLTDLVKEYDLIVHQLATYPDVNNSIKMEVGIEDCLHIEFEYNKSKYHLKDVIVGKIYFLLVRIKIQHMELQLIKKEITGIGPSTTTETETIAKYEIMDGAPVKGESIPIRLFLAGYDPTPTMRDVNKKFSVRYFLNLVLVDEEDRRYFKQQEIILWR

Sequence of SNX27 PDZ domain in the presence of VPS26A (p.M112V) (O75436 whole entry M112V, the tested form may be a part, one chain of several): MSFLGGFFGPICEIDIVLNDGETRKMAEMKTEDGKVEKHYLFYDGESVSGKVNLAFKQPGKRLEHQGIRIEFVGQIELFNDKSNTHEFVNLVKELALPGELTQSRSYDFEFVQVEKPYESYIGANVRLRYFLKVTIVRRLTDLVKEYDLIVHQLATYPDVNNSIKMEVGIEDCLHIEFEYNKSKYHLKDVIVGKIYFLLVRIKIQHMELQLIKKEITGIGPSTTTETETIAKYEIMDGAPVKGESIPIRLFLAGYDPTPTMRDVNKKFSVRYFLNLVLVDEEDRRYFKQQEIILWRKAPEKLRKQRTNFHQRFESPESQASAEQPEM
Sequence of SNX27 PDZ domain in the presence of VPS26A (p.K93E) (O75436 whole entry K93E, the tested form may be a part, one chain of several): as the sequence (O75436 whole entry M112V, the tested form may be a part, one chain of several) above, with K93E, V112M counted along it

fold enhancement of binding over SNX27 PDZ domain alone [1]: > 10 fold | fold enhancement of binding over SNX27 PDZ domain alone [2]: > 10 fold
Binder: PPESESKV [Kir3.3 peptide (PPESESKV)]

SILAC enrichment ratio, mutant over wild-type GFP-VPS26A [3]: 6.55
B1: DENND4C (natural protein)
chain: not shown

SILAC enrichment ratio, mutant over wild-type GFP-VPS26A [3]: 17.2
B2: PKD2 (natural protein)
chain: MVNSSRVQPQQPGDAKRPPAPRAPDPGRLMAGCAAVGASLAAPGGLCEQRGLEIEMQRIRQAAARDPPAGAAASPSPPLSSCSRQAWSRDNPGFEAEEEEEEVEGEEGGMVVEMDVEWRPGSRRSAASSAVSSVGARSRGLGGYHGAGHPSGRRRRREDQGPPCPSPVGGGDPLHRHLPLEGQPPRVAWAERLVRGLRGLWGTRLMEESSTNREKYLKSVLRELVTYLLFLIVLCILTYGMMSSNVYYYTRMMSQLFLDTPVSKTEKTNFKTLSSMEDFWKFTEGSLLDGLYWKMQPSNQTEADNRSFIFYENLLLGVPRIRQLRVRNGSCSIPQDLRDEIKECYDVYSVSSEDRAPFGPRNGTAWIYTSEKDLNGSSHWGIIATYSGAGYYLDLSRTREETAAQVASLKKNVWLDRGTRATFIDFSVYNANINLFCVVRLLVEFPATGGVIPSWQFQPLKLIRYVTTFDFFLAACEIIFCFFIFYYVVEEILEIRIHKLHYFRSFWNCLDVVIVVLSVVAIGINIYRTSNVEVLLQFLEDQNTFPNFEHLAYWQIQFNNIAAVTVFFVWIKLFKFINFNRTMSQLSTTMSRCAKDLFGFAIMFFIIFLAYAQLAYLVFGTQVDDFSTFQECIFTQFRIILGDINFAEIEEANRVLGPIYFTTFVFFMFFILLNMFLAIINDTYSEVKSDLAQQKAEMELSDLIRKGYHKALVKLKLKKNTVDDISESLRQGGGKLNFDELRQDLKGKGHTDAEIEAIFTKYDQDGDQELTEHEHQQMRDDLEKEREDLDLDHSSLPRPMSSRSFPRSLDDSEEDDDEDSGHSSRRRGSISSGVSYEEFQVLVRRVDRMEHSIGSIVSKIDAVIVKLEIMERAKLKRREVLGRLLDGVAEDERLGRDSEIHREQMERLVREELERWESDDAASQISHGLGTPVGLNGQPRPRSSRPSSSQSTEGMEGAGGNGSSNVHV

— paper PMC4987296 (The Journal of Cell Biology, 2016)
